± gives the uncertainty stated by the source.

B1: Protein piccolo, residues 1058 to 1114; numbered along this chain, Q9Y6V0 (parent)
chain: TCPLCKTELNIGSKDPPNFNTCTECKNQVCNLCGFNPTPHLTEIQEWLCLNCQTQRA

In the series the parent is B1. Nature of the series: abundance fitness (aPCA) (normalised: wild type 0, dead -1); higher = more abundant; growth selection in yeast, the domain comes from the species named. As to conditions: Homo sapiens.
Regarding TCPLCKTELNIGSKDPPNFNTCTECKNQVCNLCGFNPTPHLTKIQEWLCLNCQTQRA [E43K], the abundance fitness is -0.003 ± 0.27.
For TCPLCKTELNIGSKDPPNFNTCTECKNQVCNLCGFNPTPHLTFIQEWLCLNCQTQRA [E43F] the value was -0.289 ± 0.2; for TCPLCKTELNIGSKDPPNFNTCTECKPQVCNLCGFNPTPHLTEIQEWLCLNCQTQRA [N27P], -0.317 ± 0.14.
As for TCPLCKTELNIGIKDPPNFNTCTECKNQVCNLCGFNPTPHLTEIQEWLCLNCQTQRA [S13I], the abundance fitness is -0.21 ± 0.16.
For TCPLCKTELNIGSKDPPNFNTCTECKNQVCNLCGFNPTAHLTEIQEWLCLNCQTQRA [P39A] the value was 0.018 ± 0.12; for TCPLCKTELNIGSKDPPNFNTCTECKNQVCNLCGFNPTKHLTEIQEWLCLNCQTQRA [P39K], 0.193 ± 0.15; for TCPLCKTELNIGSKDPPNNNTCTECKNQVCNLCGFNPTPHLTEIQEWLCLNCQTQRA [F19N], 0.04 ± 0.28.
For TCPLRKTELNIGSKDPPNFNTCTECKNQVCNLCGFNPTPHLTEIQEWLCLNCQTQRA [C5R] the value was -0.906 ± 0.09; for TCPLCKTELNIGSKDPPNFNTCTECKNQKCNLCGFNPTPHLTEIQEWLCLNCQTQRA [V29K], -0.326 ± 0.11; for TCPLCKTELNIGSKDPPNFNTCTECKNQNCNLCGFNPTPHLTEIQEWLCLNCQTQRA [V29N], -0.199 ± 0.077.
TCPLCKTELNIGSKDPPNFNTCTECKNQHCNLCGFNPTPHLTEIQEWLCLNCQTQRA [V29H]: the abundance fitness is -0.1 ± 0.076.
Take TCPLCKTELNIGSKDPPNFNTCTECKNQVCNLCGFNPTPHLTEIQEWRCLNCQTQRA [L48R]: the abundance fitness is -0.079 ± 0.11.
For TCPLCKTELNIGSKDPPNFNTCTECKNQVCNLCGFNPTPHLTEIQEWGCLNCQTQRA [L48G] the value was -0.355 ± 0.12; for TCPLCKTELNIGSKDPPNFNTCTECKNQVCNLCGFNPTPHLTEIQEWLFLNCQTQRA [C49F], -0.793 ± 0.24.
For TCPLCKTELNIGSKDPPNFNTCTECKNQVCNLCGFNPTPHLTEIQEWLPLNCQTQRA [C49P] the value was -0.418 ± 0.14; for TCPLCKTELNIGSKDPPNFNTCTECKNQVCNLCGFNPTPHLTEIQEWLLLNCQTQRA [C49L], -1 ± 0.14; for TCPLCKTELNIGSKDPPNFNTCTECKNQVCNLCGFNPTPHLTEIQEWLQLNCQTQRA [C49Q], -0.927 ± 0.17.
For TCPLCKTELNIGSKDPPNFNTCTECKNQVCNLCGFNPTPHLTEIQEWLCLNCRTQRA [Q53R] the value was 0.099 ± 0.1; for TCPLCKTELNIGSKDPPNFNTCTECKNQVSNLCGFNPTPHLTEIQEWLCLNCQTQRA [C30S], -0.429 ± 0.095; for TCPLCKTELNIGSKDPPNFNTCTECKNQVLNLCGFNPTPHLTEIQEWLCLNCQTQRA [C30L], -0.971 ± 0.11.
For TCPLCKTELNIGSKDPPNFNTCTECKNQVYNLCGFNPTPHLTEIQEWLCLNCQTQRA [C30Y], the abundance fitness was -1.03 ± 0.14.
For TCPLCKTELNIGSKDPPNFNTCTECKNQVVNLCGFNPTPHLTEIQEWLCLNCQTQRA [C30V] the value was -0.594 ± 0.099; for TCPLCKTELNIGSKDPPNFNTCTECKNQVWNLCGFNPTPHLTEIQEWLCLNCQTQRA [C30W], -1 ± 0.14.
The result for TCPLCKTELNIGSKCPPNFNTCTECKNQVCNLCGFNPTPHLTEIQEWLCLNCQTQRA [D15C] reads -0.152 ± 0.13; that for TCPLCKTELNIGSKDPPNFNTCTECKNQVCNLCGLNPTPHLTEIQEWLCLNCQTQRA [F35L], 0.175 ± 0.08; that for TCPLCKTELNIGSKDPPNFNTCTECKNQVCNLCGANPTPHLTEIQEWLCLNCQTQRA [F35A], 0.139 ± 0.1.
For TCPLCKTELNIGSKDPPNFNTCTECKNQVCNLCGNNPTPHLTEIQEWLCLNCQTQRA [F35N] the value was 0.066 ± 0.15.
Regarding TCPLCKTELNIGSKDPPNFNTCTECKNQVCNLCGENPTPHLTEIQEWLCLNCQTQRA [F35E], the abundance fitness is 0.275 ± 0.14.
For TCPLCKTELNIGSKDPPNFNTCTECKNQVCNLCGHNPTPHLTEIQEWLCLNCQTQRA [F35H] the value was 0.275 ± 0.15.
The result for TCPLCKTELNIGSKDPPNFNTCTECKNQVCNLCGFNPTPHLTEIQELLCLNCQTQRA [W47L] reads 0.056 ± 0.1.
For TCPLCKTELNIGSKDPPNFNTCTECKNQVCNLCGFNPTPHLTEIQEGLCLNCQTQRA [W47G] the value was 0.056 ± 0.15; for TCPLCKTELNIGSKDPPNFNTCTECKNQVCNLCGFNPTPHLTEIQEWLCLNCQNQRA [T54N], 0.296 ± 0.32; for TCPLCKTELNIGSKDPPNFNTCTECKNQVCNLCRFNPTPHLTEIQEWLCLNCQTQRA [G34R], -0.102 ± 0.099.
Regarding TCPLCKTELNIGSKDPPNFNTCTECKNQVCNLCGFNPTPHLTEIQEWLCWNCQTQRA [L50W], the abundance fitness is -0.215 ± 0.12.
For TCPLCGTELNIGSKDPPNFNTCTECKNQVCNLCGFNPTPHLTEIQEWLCLNCQTQRA [K6G] the value was -0.507 ± 0.074.
The result for TCPLCHTELNIGSKDPPNFNTCTECKNQVCNLCGFNPTPHLTEIQEWLCLNCQTQRA [K6H] reads -0.142 ± 0.15.
TCPLCKTELNIGSKDPPPFNTCTECKNQVCNLCGFNPTPHLTEIQEWLCLNCQTQRA [N18P]: the abundance fitness is -0.047 ± 0.16.
On to TCPCCKTELNIGSKDPPNFNTCTECKNQVCNLCGFNPTPHLTEIQEWLCLNCQTQRA [L4C], for which the abundance fitness was -0.043 ± 0.12.
For TCPECKTELNIGSKDPPNFNTCTECKNQVCNLCGFNPTPHLTEIQEWLCLNCQTQRA [L4E] the value was -0.288 ± 0.14; for TCPACKTELNIGSKDPPNFNTCTECKNQVCNLCGFNPTPHLTEIQEWLCLNCQTQRA [L4A], 0.087 ± 0.11; for TCPLCKTELNIGSKDPPNFNTCTECKNQVCNLCGFNPTPHLTEIQEWLCLNNQTQRA [C52N], -0.876 ± 0.36.
For TCPLCKTELNIGSKDPPNFNTCTECKNQVCNLCGFNPTPHLTEIQEWLCLNYQTQRA [C52Y] the value was -0.841 ± 0.16; for TCPLCKTELNIYSKDPPNFNTCTECKNQVCNLCGFNPTPHLTEIQEWLCLNCQTQRA [G12Y], -0.137 ± 0.18.
As to TCPLCKTELNIRSKDPPNFNTCTECKNQVCNLCGFNPTPHLTEIQEWLCLNCQTQRA [G12R], the abundance fitness was -0.05 ± 0.08.
The result for TCPLCKTELNIWSKDPPNFNTCTECKNQVCNLCGFNPTPHLTEIQEWLCLNCQTQRA [G12W] reads -0.326 ± 0.091.
As to TCPLCKTELNIGSKDPPNFNTCTECKNQVCNLCGFNPTPHLTEGQEWLCLNCQTQRA [I44G], the abundance fitness worked out at 0.02 ± 0.14.

The record behind these values is the Human Domainome abundance scans (Beltran et al. 2025).
